# From patent US20260250410A1, “ANTIBODY AND USE THEREOF” (SICHUAN HUIYU PHARMACEUTICAL CO., LTD., priority 2022, published 2026)
# Positions count from the first letter of the chain named.
# T1: HuCDCP1-C (Homo sapiens, UniProt Q9H5V8)
# T1 construct: made in house; host or cells: HEK-293T
# T1 sequence (Q9H5V8 30-667): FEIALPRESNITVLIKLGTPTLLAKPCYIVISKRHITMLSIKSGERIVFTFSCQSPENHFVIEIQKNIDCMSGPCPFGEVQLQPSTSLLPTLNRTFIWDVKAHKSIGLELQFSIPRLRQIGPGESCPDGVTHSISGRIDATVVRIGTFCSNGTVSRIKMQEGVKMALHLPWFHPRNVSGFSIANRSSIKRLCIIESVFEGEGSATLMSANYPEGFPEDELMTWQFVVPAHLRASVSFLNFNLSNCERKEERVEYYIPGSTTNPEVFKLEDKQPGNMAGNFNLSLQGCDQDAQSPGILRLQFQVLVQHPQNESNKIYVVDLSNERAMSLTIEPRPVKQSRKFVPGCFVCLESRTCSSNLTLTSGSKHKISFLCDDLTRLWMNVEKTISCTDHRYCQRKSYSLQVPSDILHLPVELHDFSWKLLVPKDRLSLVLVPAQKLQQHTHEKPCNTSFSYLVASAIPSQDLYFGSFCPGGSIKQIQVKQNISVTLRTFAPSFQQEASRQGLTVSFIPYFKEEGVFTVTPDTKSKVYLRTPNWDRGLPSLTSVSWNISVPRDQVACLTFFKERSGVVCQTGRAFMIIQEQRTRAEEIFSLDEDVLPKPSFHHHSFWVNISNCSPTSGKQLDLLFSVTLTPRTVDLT
# B1: 1CP-112: humanized anti-CDCP1 antibody produced by 8E5; VH SEQ ID NO: 347, VL SEQ ID NO: 357 (antibody, V domains shown)
# VH: QVQLVQSGSELKKPGASVKVSCKASGYTLTDFSMHWVRQAPGQGLEWMGWINTETGAPTYADDFKGRFVFSLDTSVSTAYLQISSLKAEDTAVYYCSRGRDYDPHFDYWGQGTLVTVSS
# VL: EIVLTQSPATLSLSPGERATLSCRASQSISDFLHWYQQKPGQAPRLLIKYASQSISGIPARFSGSGPGSDFTLTISSVEPEDFAVYYCQSAHSFPYTFGQGTKLEIK
# modifications: humanized antibody 8E5 heavy chain variable region 01; humanized antibody 8E5 light chain variable region 01
# B2: 1CP-113: humanized anti-CDCP1 antibody produced by 8E5; VH SEQ ID NO: 348, VL SEQ ID NO: 357 (antibody, V domains shown)
# VH: B1 VH with F70L
# VL: B1 VL
# modifications: humanized antibody 8E5 heavy chain variable region 01; humanized antibody 8E5 light chain variable region 01
# B3: 1CP-116: humanized anti-CDCP1 antibody produced by 8E5; VH SEQ ID NO: 347, VL SEQ ID NO: 358 (antibody, V domains shown)
# VH: B1 VH
# VL: B1 VL with A43S, P67S
# modifications: humanized antibody 8E5 heavy chain variable region 01; humanized antibody 8E5 light chain variable region 02
# B4: 1CP-114: humanized anti-CDCP1 antibody produced by 8E5; VH SEQ ID NO: 349, VL SEQ ID NO: 357 (antibody, V domains shown)
# VH: B1 VH with A16E, F70L, A88S
# VL: B1 VL
# modifications: humanized antibody 8E5 heavy chain variable region 03; humanized antibody 8E5 light chain variable region 01
# B5: 1CP-159: humanized anti-CDCP1 antibody produced by 8C9; VH SEQ ID NO: 343, VL SEQ ID NO: 356 (antibody, V domains shown)
# VH: EVQLVESGGGLVQPGRSLRLSCTASGLTFTHYHMSWFRQAPGKGLEWVAIIRNKAYGYTTDYSASVRGRFTISRDDSKSILYLQMNSLKTEDTAVYYCVREGGYGYDGTFAYWGQGTLVTVSS
# VL: DIQMTQSPSSLSASVGDRVTITCRASESVDNYGISFMNWFQQKPGQPPKLLIYAASNQGSGVPSRFSGSGSGTDFTLTISSMQPEDFATYFCQQSKEVPRTFGGGTKVEIK
# modifications: humanized antibody 8C9 heavy chain variable region 01; humanized antibody 8C9 light chain variable region 03
# B6: 1CP-162: humanized anti-CDCP1 antibody produced by 8C9; VH SEQ ID NO: 346, VL SEQ ID NO: 356 (antibody, V domains shown)
# VH: B5 VH with A24T, F37V, A40P, G44A, L45P
# VL: B5 VL
# modifications: humanized antibody 8C9 heavy chain variable region 04; humanized antibody 8C9 light chain variable region 03
# B7: 1CP-161: humanized anti-CDCP1 antibody produced by 8C9; VH SEQ ID NO: 345, VL SEQ ID NO: 356 (antibody, V domains shown)
# VH: B5 VH with A24T, F37V, L45P
# VL: B5 VL
# modifications: humanized antibody 8C9 heavy chain variable region 03; humanized antibody 8C9 light chain variable region 03
# B8: 1CP-160: humanized anti-CDCP1 antibody produced by 8C9; VH SEQ ID NO: 344, VL SEQ ID NO: 356 (antibody, V domains shown)
# VH: B5 VH with A24T, F37V
# VL: B5 VL
# modifications: humanized antibody 8C9 heavy chain variable region 02; humanized antibody 8C9 light chain variable region 03
# B9: 24G4: anti-CDCP1 murine monoclonal antibody (hybridoma); VH SEQ ID NO: 261, VL SEQ ID NO: 311 (antibody, V domains shown)
# VH: EVQLKESGAELVRSGASVKLSCTASGFNIKDYYIHWVKQRPEQGLEWIGWIDPENGDTEYVPKFQGKATLTADTSSNTAYLQLNSLTSEDTAVYYCNPCGTGPWFAYWGQGTTVTVSS
# VL: DIQMTQSPAILSASPGEKVTMTCRASSSVSYIHWYQQKPGSSPDPWIYATSFLASGVPGRFSGSGSGTSYSLTISRLEAEDAATYYCQQWNSSPFTFGGGTKLEIK
# modifications: 24G4 heavy chain variable region; 24G4 light chain variable region
# B10: 6G9: anti-CDCP1 murine monoclonal antibody (hybridoma); VH SEQ ID NO: 244, VL SEQ ID NO: 295 (antibody, V domains shown)
# VH: EVQLKESGPGLVKPSQSLSLTCTVTGYSITSDYAWNWIRQFPGNKLEWMGYIIYSGRTSYNPSLKSRISITRDTSKNQFFLQLNSVTTEDTATYYCAREDYYGGSYGGLDYWGQGTTVTVSS
# VL: DIVMTQSPLSLPVSLGDQASISCRSSQSIVHSNGNTYLEWYLQKPGQSPKLLIYKVSNRFSGVPDRFSGSGSGTDFTLKISRVEAEDLGVYYCFQGSHVPWTFGGGTKLEIK
# modifications: 6G9 heavy chain variable region; 6G9 light chain variable region
# Biological target: T1, HuCDCP1-C
# Experiment: Caterra affinity of humanized anti-CDCP1 antibodies
# Assay type: binding
# Settings: HuCDCP1-C 2 μg/ml immobilized
# Procedure: The humanized anti-CDCP1 antibodies obtained from Example 11 were subjected to gene cloning, constructed into pTT5 expression vector for a small amount of expression in CHO cells (Expi-CHOS: Gibco A29127), and purified with an Fc affinity column (AT Protein A Diamond Plus. No. AA402312). Antibody purity was analyzed by HPLC and determined by Nanodrop. High-throughput affinity assay was carried out for a small amount of antibodies by Caterra.
ka [M⁻¹ s⁻¹],kd [s⁻¹],Molecule
136000,5e-05,B1
143000,5.9e-05,B2
128000,4.59e-05,B3
161000,0.00246,B4
18000,0.000767,B5
113000,0.000305,B6
114000,0.000365,B7
110000,0.00042,B8

# Test system: MDA-MB-231 cells
# Experiment: Endocytosis capacity of murine monoclonal antibody (flow cytometry internalization)
# Assay type: cell-based, human
# Settings: MDA-MB-231, 0.5 h at 37° C., antibody 1.5 μg/mL
# Procedure: (§1) The endocytosis capacity of the antibody was detected for 0.5 to 2 hours. MDA-MB-231 and PC3 cells were subjected to digestion with 5 mM EDTA, and plated at 4×10^4 cells/well after cell counting. After adding an Fc blocker (Human TruStain FcX™, Biolegend, 422302) and blocking at room temperature for 10 mins, a test antibody (1.5 μg/mL) was added, and the mixture was incubated at 4° C. for 30 mins, centrifuged, and washed twice with PBS+2% FBS, then the cells were divided into four equal portions (labeled as 0 h, 0.5 h, 1 h, 2 h), cells labeled as 0.5 h, 1 h, 2 h time points were added to a cell culture medium at 200 µL/well, and cultured at 37° C. for 0.5 h, 1 h, 2 h, respectively. Cells at 0 h point were centrifuged to remove supernatant, a secondary antibody (PE anti-human IgG Fc Antibody, Biolegend, 410708) was added, and the mixture was incubated at 4° C. for 30 mins, centrifuged, and washed twice with PBS+2% FBS, and detection was performed using a flow cytometer. After incubation of cells labeled as 0.5 h, 1 h, and 2 h points at 37° C. was completed, a secondary antibody was added (in the same steps as those at 0 h point), Geo-MFI of the signal under the same voltage was collected as detection signal at 0 h, and antibody internalization rate was calculated according to the following equation: Internalization (%)=(Geo-MFI (0 h)-Geo-MFI (0.5, 1, 2 h))/Geo-MFI (0 h)×100%.
row,Molecule,Internalization MDA-MB-231 (%) 0.5 h [%]
1,B9,55.98
2,B10,75.76

# Same assay, conditions: MDA-MB-231, 1 h at 37° C., antibody 1.5 μg/mL
row,Molecule,Internalization MDA-MB-231 (%) 1 h [%]
1,B9,70.68
2,B10,86.81

# Same assay, conditions: MDA-MB-231, 2 h at 37° C., antibody 1.5 μg/mL
row,Molecule,Internalization MDA-MB-231 (%) 2 h [%]
1,B9,83.23
2,B10,88.89

# Test system: PC3 cells
# Experiment: as above
# Assay type: cell-based, human
# Settings: PC3, 0.5 h at 37° C., antibody 1.5 μg/mL
# Procedure: as §1
row,Molecule,Internalization PC3 (%) 0.5 h [%]
1,B9,46.97
2,B10,60.58

# Same assay, conditions: PC3, 1 h at 37° C., antibody 1.5 μg/mL
row,Molecule,Internalization PC3 (%) 1 h [%]
1,B9,67.07
2,B10,77.88

# Same assay, conditions: PC3, 2 h at 37° C., antibody 1.5 μg/mL
row,Molecule,Internalization PC3 (%) 2 h [%]
1,B9,82.61
2,B10,87.67
